This note sets out measurements from patent US4016250A, “Method for testing for pregnancy” (Cornell Research Foundation, Inc., priority 1974, dated 1977).

Experiment [1] deals with T1, receptor for HCG in plasma membranes from bovine corpora lutea (Bos taurus, UniProt Q28005).
T1 construct: 100 g. of tissue from approximately 25 large corpora lutea; from tissue; host or cells: bovine corpora lutea of early pregnancy (slaughterhouse), plasma membrane fraction from zonal sucrose gradient
In words: Radioreceptorassay of HCG: competition with 125I-HCG for plasma membrane receptor. The experiment is classed as binding. On the procedure: All procedures in the preparation of plasma membranes were carried out in an ice bath or at 4° C. Fresh bovine ovaries from early pregnancy (first trimester: fetus length from crown to rump up to 22 cm.) were obtained from the slaughter house and stored in liquid nitrogen until processed. In a typical experiment, 100 g. of tissue from approximately 25 large corpora lutea were cut into small pieces with a sharp steel blade and ground in 500 ml. of 10 mM. Tris-HCl buffer of pH. 7.8 containing one mM. of MgCl2, one MM. dithiothreitol, 10,000I.U. of Trasylol (FBA Pharmaceuticals) per liter and 0.25 M. sucrose. The homogenate was filtered through two layers of cheese cloth and the larger particles were reprocessed in 500 ml. of the buffer. […] The homogenate was centifuged at 650 xg. for 20 minutes in a Sorvall refrigerated centrifuge (RC B, Rotor GSA) to remove intact cells, cell debris and nuclei. The 650 × g. supernatant was again centrifuged at 13,000 g. for 20 minutes in the same centrifuge. […]
In Table I, the incubation was performed for 30 minutes at 37° C. in a Dunaboff water bath shaker. […] The supernates were aspirated and the pellets were counted in a Packard Autogamma counter with a 51% efficiency for I^125. The standard curves and the hormonal concentration in the plasma samples were calculated by a time sharing IBM computer using logit-log transformations.

The target in experiment [2] is T2, PRL receptor sites in ovarian homogenates (Bos taurus, UniProt Q28172).
T2 construct: from tissue; host or cells: ovarian homogenate (bovine, from the preparation section)
T2 sequence (Q28172 25-581): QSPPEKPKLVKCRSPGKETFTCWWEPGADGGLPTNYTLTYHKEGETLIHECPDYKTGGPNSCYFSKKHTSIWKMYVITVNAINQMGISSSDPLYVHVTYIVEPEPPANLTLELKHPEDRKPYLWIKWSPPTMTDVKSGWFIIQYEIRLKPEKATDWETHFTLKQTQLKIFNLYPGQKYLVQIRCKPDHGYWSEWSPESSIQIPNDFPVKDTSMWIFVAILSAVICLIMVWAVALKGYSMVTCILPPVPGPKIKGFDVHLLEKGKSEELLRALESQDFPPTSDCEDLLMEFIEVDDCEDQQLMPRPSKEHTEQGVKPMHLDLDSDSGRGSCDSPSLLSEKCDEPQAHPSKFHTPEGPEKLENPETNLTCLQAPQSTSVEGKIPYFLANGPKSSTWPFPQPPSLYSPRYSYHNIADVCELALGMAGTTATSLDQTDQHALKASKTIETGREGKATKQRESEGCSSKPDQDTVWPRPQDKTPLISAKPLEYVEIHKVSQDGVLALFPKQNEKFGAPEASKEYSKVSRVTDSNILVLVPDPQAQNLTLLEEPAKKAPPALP
Kind of experiment: Specificity of 125I-hPRL binding: displacement by unlabeled hormones. On the set-up: species or system bovine. Here is the method: A reaction mixture containing 100 ul of incubation buffer containing 10 IU Trasylol (FBA Pharmaceuticals, New York, New York), 50 ul of receptor preparation equivalent to 1-300 ug of protein and 100 ul of ^125 I-hPRL (SA; 50-70 uCi/ug) were incubated at 37° C. for 2 hours in the absence and in the presence of 1 ug of unlabeled bovine PRL. At the end of incubation, 1 ml of ice cold buffer was added to all tubes and tubes were centrifuged at 5,000 rpm for 20 minutes. The supernatants were aspirated. The pellets containing receptor bound hormones were counted in an Automamma counter with a 51% efficiency for ^125 I (Packard Instrument Company, Downers Grove, Illinois). Specific binding was calculated as the difference of binding in the tubes with and without unlabeled PRL.

T1 sequence (Q28005 27-701): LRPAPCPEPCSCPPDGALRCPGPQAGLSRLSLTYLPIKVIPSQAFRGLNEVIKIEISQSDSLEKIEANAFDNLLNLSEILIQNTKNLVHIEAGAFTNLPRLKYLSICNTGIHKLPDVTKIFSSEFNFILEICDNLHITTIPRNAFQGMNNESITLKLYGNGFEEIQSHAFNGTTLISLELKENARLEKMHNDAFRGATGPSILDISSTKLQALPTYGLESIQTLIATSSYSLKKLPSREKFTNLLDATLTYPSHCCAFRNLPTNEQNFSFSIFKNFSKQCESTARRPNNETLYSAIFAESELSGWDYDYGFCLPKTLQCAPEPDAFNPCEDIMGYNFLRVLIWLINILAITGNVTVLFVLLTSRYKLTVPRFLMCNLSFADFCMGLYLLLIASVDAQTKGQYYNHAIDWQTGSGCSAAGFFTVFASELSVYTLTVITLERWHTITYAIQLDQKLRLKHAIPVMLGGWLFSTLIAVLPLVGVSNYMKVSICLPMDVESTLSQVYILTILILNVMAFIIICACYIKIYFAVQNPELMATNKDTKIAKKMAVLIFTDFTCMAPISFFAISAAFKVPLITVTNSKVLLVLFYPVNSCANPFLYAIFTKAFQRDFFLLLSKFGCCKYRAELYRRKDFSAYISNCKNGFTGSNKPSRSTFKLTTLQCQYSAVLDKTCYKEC

As to “LH from rat: sample of luteinizing hormone from rat”, the “logit-log line of radioreceptorassay response compared with HCG” value in experiment [1] (same system, different concentrations) is listed as “parallel to the line for HCG”.

On to human growth hormone [hGH], for which, in experiment [1] (FIG. 2 legends: TSH, HGH, PRL are plasma from hypothyroid, acromegalic, postpartum lactation subjects), the “cross-reaction in the radioreceptorassay of HCG (FIG. 2)” value is “no cross-reaction”. Also, in experiment [2], the “potency in displacing receptor-bound 125I-hPRL relative to hPRL” value is 0.5-1 % of hPRL. Also, in experiment [2] (various concentrations), the “displacement of 125I-hPRL bound to receptor protein” value is “capable of displacing”.
